B1: ADAMTS4 (parent)
chain: SFRKFRYGYNNVVTIPAGATHILV

Variants of: B1
Assay: protein stability index of a GFP-peptide fusion (GPS, HEK-293T) (PSI 1-6); higher = more stable
Conditions: c terminus: a fixed tail appended
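Note: lentivirally expressed fusions sorted by FACS into six bins by GFP to DsRed ratio, PSI derived from sequencing read proportions per bin multiplied by bin number.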

Protein stability index, by site and new letter:
I15: L 2.3; G 1.4; D 2.35; Y 2.11; M 2.28; C 2.03; V 1.5; H 2.01; P 1.52; S 2.48; W 1.86; Q 1.4; F 1.55; K 2.41; R 1.44; T 2.26; A 2.17; E 2.16; N 1.57
R6: V 2.5; C 4.22; H 2.76; K 3; L 3.25; M 3.49; Q 3.44; A 1.91; P 3.56; Y 2.15; S 2.95; F 3.68; D 2.22; N 2.5; G 2.57; W 2.86; I 2.3; T 2.37
N10: K 1.81; C 2.65; Y 2.02; L 4.32; H 1.84; T 2.18; R 2.36; W 1.6; Q 1.94; P 1.86; I 3.13; E 1.56; M 2.49; V 1.81; G 1.34; F 2.9; S 1.99; D 3.41
V13: P 2.12; Y 1.49; N 2.04; A 3.18; C 2.92; G 2.1; Q 1.8; T 2.11; F 2.6; M 1.9; H 1.74; K 1.97; D 2.74; R 3.77; W 3.05; I 2.07; L 3.1; S 1.82; E 2.73
P16: V 1.87; W 2.05; L 1.81; A 2.65; D 3.51; R 1.76; C 2.46; Q 2.25; T 1.36; M 2.59; F 2.57; I 2.63; Y 2.49; K 2.19; H 2.4; E 2.83; S 2.5; G 2.36
G18: N 1.27; A 1.72; Q 2.88; Y 1.64; P 2.06; K 2.41; S 2.58; H 1.71; F 2.3; V 1.63; T 2.71; D 2.71; L 2; M 1.54; E 2.63; C 1.73; R 1.85; W 1.9; I 1.62
A19: P 2.17; L 3.23; N 2.17; R 2.67; C 2.13; D 3.22; H 1.96; W 2.72; K 3; Q 1.88; F 3.91; V 1.84; T 1.36; Y 3.44; G 1.22; E 3.97
G8: D 2.5; M 2.79; W 3.33; Y 1.51; E 2.1; F 2.48; H 3.15; L 2.38; R 2.96; Q 2.77; A 2.21; S 3.58; P 2.38; N 3.3; C 2.46; K 2.4; T 2.71; I 4.84; V 2.24
Y9: C 1.55; V 1.65; R 2.46; W 3.46; I 2.46; M 1.9; F 1.72; G 3.68; P 1.76; T 2.05; H 2.36; L 2.75; D 2.86; A 3.15; E 1.71; S 1.78; Q 2.01; K 2.07; N 2.14
I22: A 1.74; F 2.58; K 2.37; M 1.9; W 1.83; E 2.53; N 1.83; H 1.8; L 2.51; T 1.97; D 2.24; C 2.42; G 1.93; P 2.59; R 1.88; Y 1.92; S 2.36; Q 2.31; V 1.79
F5: T 2.98; Y 1.98; Q 1.92; G 2.3; V 3.85; S 1.87; R 3.02; E 2.51; W 2.87; P 1.88; H 1.66; N 1.84; K 1.77; M 3.23; L 2.78; D 2.21
T20: D 1.54; E 2.56; N 1.85; G 1.49; W 2.38; M 2.51; Y 1.69; P 3.21; K 2.24; V 2.55; A 2.32; F 3.2; C 2.86; L 2.9; Q 2.19; H 1.63; I 2.77
H21: C 2.43; R 2.32; F 3.18; S 2.3; N 2.65; Q 2.85; E 3.28; A 1.3; I 2.4; P 1.28; G 2.48; T 3.43; V 2.02; Y 3.3; M 2.12; D 1.66; K 2.59
L23: A 2.4; D 1.78; C 2.19; G 2.1; F 2.76; E 1.32
A17: C 2.36; L 2.31; Q 1.33; S 1.78; D 1.64; T 1.97; N 1.78; K 1.57; V 1.24; M 1.51; G 1.95; E 1.61; P 1.98; H 1.78; Y 1.6; I 1.86; F 1.96; W 2.46; R 2
V12: R 1.7; D 3.98; K 2.34; G 3.44; H 2.33; F 1.71; T 3.03; W 2.09; I 3.16; C 2.95; A 2.25; P 2.13; Q 1.26; S 2.08; N 1.87; L 2.58; E 2.4; M 2.29; Y 2.88
T14: V 2.61; E 2.79; Q 2.2; P 1.6; F 2.74; D 3.24; G 1.33; A 1.42; W 3.53; S 2.65; Y 2.27; H 2.92; C 1.81; K 3.9; L 2.38; M 3; N 3.6; R 1.93; I 2.36
N11: G 2.89; L 1.53; V 2.57; I 2.04; A 3.51; F 1.71; C 2.42; W 1.9; P 2.59; Q 1.56; D 2.92; M 2.27; R 1.57; S 2.94; H 3.34; E 2.07; Y 1.19; T 2.59; K 1.61
Y7: N 2.43; H 1.77; C 2.84; I 2.89; S 2.19; P 2.83; E 2.63; Q 2.24; A 3.52; F 3.04; D 2.07; L 2.46; W 2; K 2.92; R 2.8; T 3.1; V 2.81; M 3.02

— the supplement of paper PMC10567573
